In patent US20230183381A1 (VIRTUOSO BINCO, published 2023):

B1: humanized h18E4-19 antibody (antibody, V domains shown)
VH: EVQLLESGGGLVQPGGSLRLSCAASGFSFNNYWIIWIRQAPGKGLEWVAAIYSPSGDIKYYADWAKGRFTVSKDNSKNTVYLQMNSLRAEDTAVYYCARELSGSSYEGYFESWGQGTLVTVSS
VL: DIQLTQSPSTLSASVGDRVTITCRSSQSVYGHNWLAWYQQKPGKAPKLLMYRASNLASGVPSRFSGSGSGTEFTLTISSVQPDDFATYYCQGYYSGGSYAFGGGTKVEIK
notes: the control is hIgG1; also called hu18E4-19; Anti-CD38
B2: Anti-CD38 HC_E95A (antibody, V domains shown)
VH: EVQLLESGGGLVQPGGSLRLSCAASGFSFNNYWIIWIRQAPGKGLEWVAAIYSPSGDIKYYADWAKGRFTVSKDNSKNTVYLQMNSLRAEDTAVYYCARALSGSSYEGYFESWGQGTLVTVSS
VL: DIQLTQSPSTLSASVGDRVTITCRSSQSVYGHNWLAWYQQKPGKAPKLLMYRASNLASGVPSRFSGSGSGTEFTLTISSVQPDDFATYYCQGYYSGGSYAFGGGTKVEIK
notes: Alanine variant of h18E4-19 with the parent VL
B3: Anti-CD38 HC_E100bA (antibody, V domains shown)
VH: EVQLLESGGGLVQPGGSLRLSCAASGFSFNNYWIIWIRQAPGKGLEWVAAIYSPSGDIKYYADWAKGRFTVSKDNSKNTVYLQMNSLRAEDTAVYYCARELSGSSYAGYFESWGQGTLVTVSS
VL: DIQLTQSPSTLSASVGDRVTITCRSSQSVYGHNWLAWYQQKPGKAPKLLMYRASNLASGVPSRFSGSGSGTEFTLTISSVQPDDFATYYCQGYYSGGSYAFGGGTKVEIK
notes: as for B2
B4: Anti-CD38 HC_E101A (antibody, V domains shown)
VH: EVQLLESGGGLVQPGGSLRLSCAASGFSFNNYWIIWIRQAPGKGLEWVAAIYSPSGDIKYYADWAKGRFTVSKDNSKNTVYLQMNSLRAEDTAVYYCARELSGSSYEGYFASWGQGTLVTVSS
VL: DIQLTQSPSTLSASVGDRVTITCRSSQSVYGHNWLAWYQQKPGKAPKLLMYRASNLASGVPSRFSGSGSGTEFTLTISSVQPDDFATYYCQGYYSGGSYAFGGGTKVEIK
notes: as for B2
B5: Anti-CD38 HC_F100eA (antibody, V domains shown)
VH: EVQLLESGGGLVQPGGSLRLSCAASGFSFNNYWIIWIRQAPGKGLEWVAAIYSPSGDIKYYADWAKGRFTVSKDNSKNTVYLQMNSLRAEDTAVYYCARELSGSSYEGYAESWGQGTLVTVSS
VL: DIQLTQSPSTLSASVGDRVTITCRSSQSVYGHNWLAWYQQKPGKAPKLLMYRASNLASGVPSRFSGSGSGTEFTLTISSVQPDDFATYYCQGYYSGGSYAFGGGTKVEIK
notes: as for B2
B6: Anti-CD38 HC_G98A (antibody, V domains shown)
VH: EVQLLESGGGLVQPGGSLRLSCAASGFSFNNYWIIWIRQAPGKGLEWVAAIYSPSGDIKYYADWAKGRFTVSKDNSKNTVYLQMNSLRAEDTAVYYCARELSASSYEGYFESWGQGTLVTVSS
VL: DIQLTQSPSTLSASVGDRVTITCRSSQSVYGHNWLAWYQQKPGKAPKLLMYRASNLASGVPSRFSGSGSGTEFTLTISSVQPDDFATYYCQGYYSGGSYAFGGGTKVEIK
notes: as for B2
B7: Anti-CD38 HC_G100cA (antibody, V domains shown)
VH: EVQLLESGGGLVQPGGSLRLSCAASGFSFNNYWIIWIRQAPGKGLEWVAAIYSPSGDIKYYADWAKGRFTVSKDNSKNTVYLQMNSLRAEDTAVYYCARELSGSSYEAYFESWGQGTLVTVSS
VL: DIQLTQSPSTLSASVGDRVTITCRSSQSVYGHNWLAWYQQKPGKAPKLLMYRASNLASGVPSRFSGSGSGTEFTLTISSVQPDDFATYYCQGYYSGGSYAFGGGTKVEIK
notes: as for B2
B8: Anti-CD38 HC_L96A (antibody, V domains shown)
VH: EVQLLESGGGLVQPGGSLRLSCAASGFSFNNYWIIWIRQAPGKGLEWVAAIYSPSGDIKYYADWAKGRFTVSKDNSKNTVYLQMNSLRAEDTAVYYCAREASGSSYEGYFESWGQGTLVTVSS
VL: DIQLTQSPSTLSASVGDRVTITCRSSQSVYGHNWLAWYQQKPGKAPKLLMYRASNLASGVPSRFSGSGSGTEFTLTISSVQPDDFATYYCQGYYSGGSYAFGGGTKVEIK
notes: as for B2
B9: Anti-CD38 HC_S97A (antibody, V domains shown)
VH: EVQLLESGGGLVQPGGSLRLSCAASGFSFNNYWIIWIRQAPGKGLEWVAAIYSPSGDIKYYADWAKGRFTVSKDNSKNTVYLQMNSLRAEDTAVYYCARELAGSSYEGYFESWGQGTLVTVSS
VL: DIQLTQSPSTLSASVGDRVTITCRSSQSVYGHNWLAWYQQKPGKAPKLLMYRASNLASGVPSRFSGSGSGTEFTLTISSVQPDDFATYYCQGYYSGGSYAFGGGTKVEIK
notes: as for B2
B10: Anti-CD38 HC_S99A (antibody, V domains shown)
VH: EVQLLESGGGLVQPGGSLRLSCAASGFSFNNYWIIWIRQAPGKGLEWVAAIYSPSGDIKYYADWAKGRFTVSKDNSKNTVYLQMNSLRAEDTAVYYCARELSGASYEGYFESWGQGTLVTVSS
VL: DIQLTQSPSTLSASVGDRVTITCRSSQSVYGHNWLAWYQQKPGKAPKLLMYRASNLASGVPSRFSGSGSGTEFTLTISSVQPDDFATYYCQGYYSGGSYAFGGGTKVEIK
notes: as for B2
B11: Anti-CD38 HC_S100A (antibody, V domains shown)
VH: EVQLLESGGGLVQPGGSLRLSCAASGFSFNNYWIIWIRQAPGKGLEWVAAIYSPSGDIKYYADWAKGRFTVSKDNSKNTVYLQMNSLRAEDTAVYYCARELSGSAYEGYFESWGQGTLVTVSS
VL: DIQLTQSPSTLSASVGDRVTITCRSSQSVYGHNWLAWYQQKPGKAPKLLMYRASNLASGVPSRFSGSGSGTEFTLTISSVQPDDFATYYCQGYYSGGSYAFGGGTKVEIK
notes: as for B2
B12: Anti-CD38 HC_S102A (antibody, V domains shown)
VH: EVQLLESGGGLVQPGGSLRLSCAASGFSFNNYWIIWIRQAPGKGLEWVAAIYSPSGDIKYYADWAKGRFTVSKDNSKNTVYLQMNSLRAEDTAVYYCARELSGSSYEGYFEAWGQGTLVTVSS
VL: DIQLTQSPSTLSASVGDRVTITCRSSQSVYGHNWLAWYQQKPGKAPKLLMYRASNLASGVPSRFSGSGSGTEFTLTISSVQPDDFATYYCQGYYSGGSYAFGGGTKVEIK
notes: as for B2
B13: Anti-CD38 HC_Y100aA (antibody, V domains shown)
VH: EVQLLESGGGLVQPGGSLRLSCAASGFSFNNYWIIWIRQAPGKGLEWVAAIYSPSGDIKYYADWAKGRFTVSKDNSKNTVYLQMNSLRAEDTAVYYCARELSGSSAEGYFESWGQGTLVTVSS
VL: DIQLTQSPSTLSASVGDRVTITCRSSQSVYGHNWLAWYQQKPGKAPKLLMYRASNLASGVPSRFSGSGSGTEFTLTISSVQPDDFATYYCQGYYSGGSYAFGGGTKVEIK
notes: as for B2
B14: Anti-CD38 HC_Y100dA (antibody, V domains shown)
VH: EVQLLESGGGLVQPGGSLRLSCAASGFSFNNYWIIWIRQAPGKGLEWVAAIYSPSGDIKYYADWAKGRFTVSKDNSKNTVYLQMNSLRAEDTAVYYCARELSGSSYEGAFESWGQGTLVTVSS
VL: DIQLTQSPSTLSASVGDRVTITCRSSQSVYGHNWLAWYQQKPGKAPKLLMYRASNLASGVPSRFSGSGSGTEFTLTISSVQPDDFATYYCQGYYSGGSYAFGGGTKVEIK
notes: as for B2
B15: Anti-CD38 LC_G90A (antibody, V domains shown)
VH: EVQLLESGGGLVQPGGSLRLSCAASGFSFNNYWIIWIRQAPGKGLEWVAAIYSPSGDIKYYADWAKGRFTVSKDNSKNTVYLQMNSLRAEDTAVYYCARELSGSSYEGYFESWGQGTLVTVSS
VL: DIQLTQSPSTLSASVGDRVTITCRSSQSVYGHNWLAWYQQKPGKAPKLLMYRASNLASGVPSRFSGSGSGTEFTLTISSVQPDDFATYYCQAYYSGGSYAFGGGTKVEIK
notes: Alanine variant of h18E4-19 with the parent VH
B16: Anti-CD38 LC_G94A (antibody, V domains shown)
VH: EVQLLESGGGLVQPGGSLRLSCAASGFSFNNYWIIWIRQAPGKGLEWVAAIYSPSGDIKYYADWAKGRFTVSKDNSKNTVYLQMNSLRAEDTAVYYCARELSGSSYEGYFESWGQGTLVTVSS
VL: DIQLTQSPSTLSASVGDRVTITCRSSQSVYGHNWLAWYQQKPGKAPKLLMYRASNLASGVPSRFSGSGSGTEFTLTISSVQPDDFATYYCQGYYSAGSYAFGGGTKVEIK
notes: Alanine variant of h18E4-19 with the parent VH; also called Anti-CD38low
B17: Anti-CD38 LC_G95A (antibody, V domains shown)
VH: EVQLLESGGGLVQPGGSLRLSCAASGFSFNNYWIIWIRQAPGKGLEWVAAIYSPSGDIKYYADWAKGRFTVSKDNSKNTVYLQMNSLRAEDTAVYYCARELSGSSYEGYFESWGQGTLVTVSS
VL: DIQLTQSPSTLSASVGDRVTITCRSSQSVYGHNWLAWYQQKPGKAPKLLMYRASNLASGVPSRFSGSGSGTEFTLTISSVQPDDFATYYCQGYYSGASYAFGGGTKVEIK
notes: as for B15
B18: Anti-CD38 LC_Q89A (antibody, V domains shown)
VH: EVQLLESGGGLVQPGGSLRLSCAASGFSFNNYWIIWIRQAPGKGLEWVAAIYSPSGDIKYYADWAKGRFTVSKDNSKNTVYLQMNSLRAEDTAVYYCARELSGSSYEGYFESWGQGTLVTVSS
VL: DIQLTQSPSTLSASVGDRVTITCRSSQSVYGHNWLAWYQQKPGKAPKLLMYRASNLASGVPSRFSGSGSGTEFTLTISSVQPDDFATYYCAGYYSGGSYAFGGGTKVEIK
notes: Alanine variant of h18E4-19 with the parent VH; also called Anti-CD38med
B19: Anti-CD38 LC_S93A (antibody, V domains shown)
VH: EVQLLESGGGLVQPGGSLRLSCAASGFSFNNYWIIWIRQAPGKGLEWVAAIYSPSGDIKYYADWAKGRFTVSKDNSKNTVYLQMNSLRAEDTAVYYCARELSGSSYEGYFESWGQGTLVTVSS
VL: DIQLTQSPSTLSASVGDRVTITCRSSQSVYGHNWLAWYQQKPGKAPKLLMYRASNLASGVPSRFSGSGSGTEFTLTISSVQPDDFATYYCQGYYAGGSYAFGGGTKVEIK
notes: as for B15
B20: Anti-CD38 LC_S95aA (antibody, V domains shown)
VH: EVQLLESGGGLVQPGGSLRLSCAASGFSFNNYWIIWIRQAPGKGLEWVAAIYSPSGDIKYYADWAKGRFTVSKDNSKNTVYLQMNSLRAEDTAVYYCARELSGSSYEGYFESWGQGTLVTVSS
VL: DIQLTQSPSTLSASVGDRVTITCRSSQSVYGHNWLAWYQQKPGKAPKLLMYRASNLASGVPSRFSGSGSGTEFTLTISSVQPDDFATYYCQGYYSGGAYAFGGGTKVEIK
notes: as for B15
B21: Anti-CD38 LC_Y91A (antibody, V domains shown)
VH: EVQLLESGGGLVQPGGSLRLSCAASGFSFNNYWIIWIRQAPGKGLEWVAAIYSPSGDIKYYADWAKGRFTVSKDNSKNTVYLQMNSLRAEDTAVYYCARELSGSSYEGYFESWGQGTLVTVSS
VL: DIQLTQSPSTLSASVGDRVTITCRSSQSVYGHNWLAWYQQKPGKAPKLLMYRASNLASGVPSRFSGSGSGTEFTLTISSVQPDDFATYYCQGAYSGGSYAFGGGTKVEIK
notes: as for B15

Molecular target: T1, human CD38 extracellular domain (hCD38, recombinant, with AviTag) (human, UniProt P28907 43-300)
T1 construct: also called recombinant CD38; huCD38
Assay: ELISA on human CD38 ECD, EC50 class

Row | Binder | EC50 [pM]
1 | B1 | 20 to 100
2 | B2 | > 500
3 | B3 | > 500
4 | B4 | 20 to 100
5 | B5 | 20 to 100
6 | B6 | 20 to 100
7 | B7 | 100 to 500
8 | B8 | 20 to 100
9 | B9 | 20 to 100
10 | B10 | 20 to 100
11 | B11 | 20 to 100
12 | B12 | 20 to 100
13 | B13 | 20 to 100
14 | B14 | > 500
15 | B15 | 100 to 500
16 | B16 | > 500
17 | B17 | 20 to 100
18 | B18 | 20 to 100
19 | B19 | 100 to 500
20 | B20 | 20 to 100
21 | B21 | > 500
